Assay results: PMC5407808

Key:
[1] = biological target: HexA-6His (Photorhabdus luminescens TT01); assay: SEC + other: dynamic light scattering; gel filtration of purified HexA-6His on a Superdex 200 column; DLS of the HexA peak fraction from gel filtration
[2] = test system: HexA-6His (Photorhabdus luminescens TT01); assay: SPR; conditions: 5' biotin on forward primer (PpcfA-Btn_fwd; position implied); SPR (Biacore T200, streptavidin chip, ~300 RU DNA): HBS-EP+ 10 mM HEPES pH 7.4, 150 mM NaCl, 3 mM EDTA, 0.05% Surfactant P20, 25 C …

Substance	stoichiometry N [1]	Kd [2] [µM]
HexA-6His (natural protein)	4	
PpcfA promoter fragment (400 bp)		1.3
